Several values for one entry are separate records, joined by “and”; a condition that tells them apart may be missing. Equal entries are not always repeated. Ends that are not written are not given here.
How the values were obtained:
small bowel = test: Small bowel weight in mice after 10 days of s.c. peptide in 16% gelatin (Example 1); format: in vivo; details: for Small bowel weight Day 10: individual mice
Method: (§1) In a first experiment designed to investigate the effect of glicentin on small bowel growth, two groups of six mice (8 week, CD1 females from Charles River Laboratories) were treated as follows. Each mouse received 41.5 μg injections every 12 hours for 10 days. The injections were delivered subcutaneously in a final volume of 16% gelatin, with 0.5 cc injected subcutaneously every 12 hours. […] Control mice received 0.5 cc of 16% gelatin solution, but no peptide, every 12 hours. Mice were fed standard rat chow with free access to food and water, until 12 hours prior to sacrifice, at which time food was withheld, and water only was given. The weight of the small bowel was ascertained by excising the entire small bowel, and removing the stomach (proximal end) and appendix/cecum/large bowel (distal end). The remaining small bowel was cleaned with saline to remove feces, and weighed. Results were as follows:
GLP-2 formulations for injection were prepared as follows: Gelatin was dissolved in warm water to a weight ratio of 16%, and the 50 mL solution was autoclaved and cooled to room temperature. A peptide solution was then separately prepared by mixing 5 mg of GLP-2 with water at a volume slightly less than 10 mL, and then adding 1N acetic acid in a volume (10-20 μL) sufficient to dissolve the peptide completely. The pH was then readjusted to about 7.0 by addition of an equal volume of 1N NaOH (10-20 μL), and the solution volume was then adjusted to 10 mL by addition of distilled water. To prepare the formulation for injection, the 10 mL peptide solution and the 50 mL solution of 16% gelatin were combined with mixing, and aliquots for injection were drawn into a 0.5 mL insulin syringe.
(§2) Mice were injected with 0.5 ml of the 16% gelatin solution, without or with peptide (62.5 μg/dose). Four groups of four mice (8 week, CD1 females from Charles River Laboratories) were injected twice daily for 10 days.

[1] = Weight of mice during 10-day peptide treatment (Example 1); format: in vivo; details: individual mice
Method: as §1, with “weighed.” for “weighed. Results were as follows:”
as §2

Solubility in water = format: physicochemical; details: preparation of injection solution
[2] = Complete autopsy after long term administration; format: in vivo, mice; details: 5 μg once a day s.c. in 10% gelatin for 4, 8 or 12 weeks
Method: Effect of Long Term Administration: Rat GLP-2 in a 10% gelatin formulation was administered s.c. in a single dose of 5 μg once a day continuously for 4 weeks (panel A), for 8 weeks (panel B) or for 12 weeks (panel C). FIG. 5 illustrates GLP-2 mediated effects on small bowel weight (BW) and in the crypt plus villus heights (PJ, DJ and DI) in treated groups (T), relative to a control (C) receiving 10% gelatin alone. […] A similar response was noted also for the distal jejunum.

[3] = group of four mice, 62.5 μg/dose twice daily for 10 days in 16% gelatin
[4] = 62.5 μg/dose twice daily for 10 days in 16% gelatin
[5] = 41.5 μg s.c. every 12 hours for 10 days in 16% gelatin

For “GLP-1: human GLP-1 (7-36 amide), custom synthesized by tBoc-based solid phase approach [reference compound]”, the “Small bowel weight % body wt” value (small bowel; [3]) was 5.26 ± .2 % body wt, the “Small bowel weight Average” value (small bowel; [3]) was 1.33 ± .04 gm and the “Small bowel weight Day 10” value (small bowel; [4]) was 1.4 gm and 1.3 gm and 1.2 gm. For the same molecule, the “Weight of Mice Day 10” value [1, 4] was 24.8 gm and 22.8 gm and 26.5 gm and the solubility in water (Solubility in water) was “relative greater solubility in water”.

For “HADGSFSDEMNTILDNLATRDFINWLIQTKITD [rat GLP-2]”, the “histological abnormalities at autopsy” value [2] was “no histological abnormalities found” and the “Weight of Mice Day 10” value [1, 4] was 23.7 gm and 25.7 gm and 27.1 gm and 25.4 gm.

B1: Glicentin: glicentin (rat), proglucagon gene-derived peptide (peptide, UniProt P06883 21-89, looked up)
Glicentin: HAPQDTEENARSFPASQTEPLEDPDQINEDKRHSQGTFTSDYSKYLDSRRAQDFVQWLMNTKRNRNNIA
modifications: Glicentin
notes: glicentin (rat), proglucagon gene-derived peptide
For B1, the intestinotrophic effect (small bowel; 41.5 μg s.c. every 12 hours for 10 days) was “modest”, the “Small bowel weight Day 10” value (small bowel; [5]) was 1.6 gm and 1.7 gm and 1.3 gm and 1.9 gm and the “Weight of Mice Day 10” value [1, 5] was 26.6 gm and 26.2 gm and 24.5 gm and 24.7 gm and 25.8 gm. For the same molecule, the solubility in water (Solubility in water) was “dissolved easily”.

— patent US5834428A, “Glucagon-like peptide-2 and its therapeutic use” (1149336 Ontario Inc., priority 1996, dated 1998)
